Laboratory results as given in paper PMC8448962 (Neuron, 2021).

Molecular target: the molecule itself
Test: crystal structure

B1: Human TRAAK A198E, crystallisation construct (C-terminally truncated, N104Q/N108Q) (domain or fragment)
chain: MTTAPQEPPARPLQAGSGAGPAPGRAMRSTTLLALLALVLLYLVSGALVFRALEQPHEQQAQRELGEVREKFLRAHPCVSDQELGLLIKEVADALGGGADPETQSTSQSSHSAWDLGSAFFFSGTIITTIGYGNVALRTDAGRLFCIFYALVGIPLFGILLAGVGDRLGSSLRHGIGHIEAIFLKWHVPPELVRVLSEMLFLLIGCLLFVLTPTFVFCYMEDWSKLEAIYFVIVTLTTVGFGDYVAGADPRQDSPAYQPLVWFWILLGLAYFASVLTTIGNWLRVVSRRTRAEMGGLTAQSNSLEVLFQ
  stoichiometry N: 2
